Results published in patent US20070196354A1, “Method of treating diabetes by inhibiting degradation of at least one of crebl1, atf6, and hnf-4 alpha by htra” (priority 2003, published 2007).

T1: HNF-4α (Homo sapiens, UniProt P41235)
T1 construct: expressed in transfected cells; host or cells: HEK293T
T1 sequence (P41235 10-474): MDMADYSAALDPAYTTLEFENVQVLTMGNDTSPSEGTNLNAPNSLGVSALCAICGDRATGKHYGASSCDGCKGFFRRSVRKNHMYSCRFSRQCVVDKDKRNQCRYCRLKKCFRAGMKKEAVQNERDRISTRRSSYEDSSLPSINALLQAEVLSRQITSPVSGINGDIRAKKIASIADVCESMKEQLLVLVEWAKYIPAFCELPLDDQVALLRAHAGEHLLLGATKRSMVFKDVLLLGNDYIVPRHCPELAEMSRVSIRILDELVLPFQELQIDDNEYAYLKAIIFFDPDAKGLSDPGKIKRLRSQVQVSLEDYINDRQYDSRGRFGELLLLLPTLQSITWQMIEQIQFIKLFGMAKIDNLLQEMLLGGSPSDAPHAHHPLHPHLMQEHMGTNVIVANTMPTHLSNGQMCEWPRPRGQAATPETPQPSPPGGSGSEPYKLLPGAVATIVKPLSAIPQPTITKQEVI

T2: ATF6 (Homo sapiens, UniProt P18850)
T2 construct: expressed in transfected cells; host or cells: HEK293T
T2 sequence (P18850 1-670): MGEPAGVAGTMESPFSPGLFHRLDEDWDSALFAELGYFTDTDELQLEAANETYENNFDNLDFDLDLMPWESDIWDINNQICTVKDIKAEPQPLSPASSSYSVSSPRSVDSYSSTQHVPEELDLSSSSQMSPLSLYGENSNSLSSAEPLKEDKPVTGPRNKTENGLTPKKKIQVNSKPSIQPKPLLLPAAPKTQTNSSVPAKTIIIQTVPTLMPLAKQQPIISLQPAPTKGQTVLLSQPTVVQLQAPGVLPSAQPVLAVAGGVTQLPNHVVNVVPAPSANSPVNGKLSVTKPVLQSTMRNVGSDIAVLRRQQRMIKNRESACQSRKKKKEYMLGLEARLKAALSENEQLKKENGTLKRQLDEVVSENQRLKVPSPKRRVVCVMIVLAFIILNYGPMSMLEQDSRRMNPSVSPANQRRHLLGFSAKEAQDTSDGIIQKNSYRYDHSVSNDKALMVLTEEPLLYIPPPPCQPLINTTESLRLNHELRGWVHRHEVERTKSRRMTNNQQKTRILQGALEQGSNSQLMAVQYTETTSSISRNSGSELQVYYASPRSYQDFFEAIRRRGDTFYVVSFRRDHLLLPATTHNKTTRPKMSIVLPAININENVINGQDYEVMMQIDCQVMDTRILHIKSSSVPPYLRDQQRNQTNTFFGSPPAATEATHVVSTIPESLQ

T3: CREBL1 (Homo sapiens, UniProt Q99941)
T3 construct: expressed in transfected cells; host or cells: HEK293T
T3 sequence (Q99941 1-703): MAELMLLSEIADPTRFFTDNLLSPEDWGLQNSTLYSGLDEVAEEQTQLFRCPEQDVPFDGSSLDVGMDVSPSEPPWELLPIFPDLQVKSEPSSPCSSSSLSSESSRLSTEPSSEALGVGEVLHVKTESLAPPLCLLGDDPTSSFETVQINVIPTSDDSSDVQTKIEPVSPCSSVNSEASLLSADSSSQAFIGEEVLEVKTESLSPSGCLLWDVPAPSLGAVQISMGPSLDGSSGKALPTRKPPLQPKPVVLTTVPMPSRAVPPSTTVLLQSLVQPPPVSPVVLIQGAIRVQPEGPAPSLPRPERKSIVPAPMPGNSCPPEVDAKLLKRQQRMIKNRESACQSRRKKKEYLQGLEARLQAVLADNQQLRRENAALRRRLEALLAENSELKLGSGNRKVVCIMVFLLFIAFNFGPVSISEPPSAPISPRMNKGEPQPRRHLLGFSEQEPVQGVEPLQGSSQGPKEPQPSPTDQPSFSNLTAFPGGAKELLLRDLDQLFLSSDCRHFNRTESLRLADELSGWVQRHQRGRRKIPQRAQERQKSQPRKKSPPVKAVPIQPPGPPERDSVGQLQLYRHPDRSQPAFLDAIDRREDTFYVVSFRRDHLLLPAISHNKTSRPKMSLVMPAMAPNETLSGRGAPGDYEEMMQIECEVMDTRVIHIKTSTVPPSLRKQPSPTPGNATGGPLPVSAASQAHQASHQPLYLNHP


Tests used:
[1] = system: casein; test: Casein zymography and protease assay with casein sodium; type: biochemical; settings: for protease activity using casein sodium as a substrate: HtrA2 types expressed in a cultured cell
Protocol: Determination of the activity of mature HtrA2 and mature HtrA2 (S306A) was carried out with casein zymography and with a protease assay with casein sodium. Casein zymography was carried out according to the protocol (Invitrogen). More concretely, mature HtrA2 and mature HtrA2 (S306A) were mixed under non-reductive condition with equivalent volume of 2×SDS sample buffer, left to stand at room temperature for 10 min, followed by separation with 4-16% zymogram (Blue casein) gel (Zymogram Gel, Invitrogen). After completion of electrophoresis, they were renatured with 2.5% Triton X-100, and then subjected to a degradation reaction of casein in the developing buffer at 37= C. for overnight.
Meanwhile, a protease assay using casein sodium as an substrate was carried out in such that mature HtrA2 or mature HtrA2 (S306A) was mixed with casein sodium in a reaction buffer (150 mM NaCl, 50 mM Tris-HCl (pH 7.5)) so as to the concentration of the former might become 200 μg/ml and the concentration of the latter might become 400 μg/ml, and incubated at 37° C. for reactions. A portion of the reaction solution was sampled at three hours and overnight after initiation of the reaction, mixed with equivalent volume of 2×SDS sample buffer followed by boiling, and then subjected to SDS-PAGE. After that, the degradation of casein sodium was detected by Coomassie Brilliant Blue (CBB) staining.
The enzyme activity of the various types of HtrA2 each of which was expressed in a cultured cell was determined by the protease assay using casein sodium as a substrate (see Example 2).

[2] = molecular target: T1, HNF-4α; test: Intracellular protease assay, co-expression with HNF-4α in HEK293T cells; type: cell-based; settings: 48 hours
Protocol: (§1) HEK293T cells were cultured to 1.5×10^5 cells/6 cm Dish. Next day, the expression plasmid of HNF-4α was transfected into HEK293T cells together with the expression plasmid of various types of HtrA2 using FuGene 6 (Roche). Each of the expression plasmid of various HtrA2 at 1 μg/Dish was added in combination with HNF-4α expression plasmid at 1 μg/Dish. Forty eight hours later, the cells in which the various types of HtrA2 were co-expressed with HNF-4α were added with 200 μl of lysis buffer B and an equivalent volume of 2×SDS sample buffer (containing 0.1% β-mercaptoethanol), and then subjected to sonication followed by boiling to use as a test sample.
Expression of HNF-4α and the degradation of HNF-4α were detected by western blotting using 10 μl of the test sample thus obtained. Anti-FLAG antibody (Sigma) was used as a primary antibody for detection, and horseradish peroxidase (HRP) labeled anti-mouse IgG antibody (Cell Signaling) was used as a secondary antibody. Detection was carried out using ECL Western Blotting Detection System.

[3] = molecular target: T2, ATF6; test: Intracellular protease assay, co-expression with ATF6 in HEK293T cells; type: cell-based; settings: 48 hours
Protocol: as §1, with “to 1.5×10^5 cells/10 cm Dish.” for “to 1.5×10^5 cells/6 cm Dish.”, “plasmid of CREBL1 or ATF6 was transfected” for “plasmid of HNF-4α was transfected”, “combination with CREBL1 expression plasmid or ATF6 expression plasmid” for “combination with HNF-4α expression plasmid”, “co-expressed with CREBL1 or ATF6 were added” for “co-expressed with HNF-4α were added”
(§2) Expression of CREBL1 and ATF6 and the degradation of these proteins were detected by western blotting using 10 μl of the test sample thus obtained. Anti-c-Myc (9E10) antibody was used as a primary antibody for detection, and horseradish peroxidase (HRP) conjugated anti-mouse IgG antibody (Cell Signaling) was used as a secondary antibody. Detection was carried out using ECL Western Blotting Detection System.

[4] = molecular target: T3, CREBL1; test: Intracellular protease assay, co-expression with CREBL1 in HEK293T cells; type: cell-based; settings: 48 hours
Protocol: as §1, with “to 1.5×10^5 cells/10 cm Dish.” for “to 1.5×10^5 cells/6 cm Dish.”, “plasmid of CREBL1 or ATF6 was transfected” for “plasmid of HNF-4α was transfected”, “combination with CREBL1 expression plasmid or ATF6 expression plasmid” for “combination with HNF-4α expression plasmid”, “co-expressed with CREBL1 or ATF6 were added” for “co-expressed with HNF-4α were added”
as §2

Molecule	protease activity using casein sodium as a substrate [1]	degradation of HNF-4α in cells (band by western blotting) [2]	degradation of ATF6 in cells (band by western blotting) [3]	degradation of CREBL1 in cells (band by western blotting) [4]	degradation of casein ([1]; casein zymography and casein sodium protease assay, 37° C., E. coli-expressed His-tagged protein)
mature HtrA2 (ΔAVPS): SEQ ID NO: 8; lacks the N-terminal four amino acid residues (AVPS) of mature HtrA2 (protein, Polypeptide consisting of the same amino acid sequence of SEQ ID NO4 wherein the amino acid residues from the 2nd to the 5th are deleted; mature HtrA2(delta AVPS)) MPPPASPRSQYNFIADVVEKTAPAVVYIEILDRHPFLGREVPISNGSGFVVAADGLIVTNAHVVADRRRVRVRLLSGDTYEAVVTAVDPVADIATLRIQTKEPLPTLPLGRSADVRQGEFVVAMGSPFALQNTITSGIVSSAQRPARDLGLPQTNVEYIQTDAAIDFGNSGGPLVNLDGEVIGVNTMKVTAGISFAIPSDRLREFLHRGEKKNSSSGISGSQRRYIGVMMLTLSPSILAELQLREPSFPDVQHGVLIHKVILGSPAHRAGLRPGDVILAIGEQMVQNAEDVYEAVRTQSQLAVQIRRGRETLTLYVTPEVTE	active type having protease activity	the band of HNF-4α was reduced significantly	the band of ATF6 was reduced significantly	the band of CREBL1 was reduced significantly	–
mature HtrA2 (S306A): SEQ ID NO: 6; HtrA2 mutant with substitution of the 174th serine residue of mature HtrA2 with alanine (protein, Polypeptide consisting of the same amino acid sequence of SEQ ID NO4 wherein the 174th amino acid residue is substituted by Ala; mature HtrA2(S306A), HtrA2 mutant with substitution of the 174th serine residue of mature HtrA2 with alanine) MAVPSPPPASPRSQYNFIADVVEKTAPAVVYIEILDRHPFLGREVPISNGSGFVVAADGLIVTNAHVVADRRRVRVRLLSGDTYEAVVTAVDPVADIATLRIQTKEPLPTLPLGRSADVRQGEFVVAMGSPFALQNTITSGIVSSAQRPARDLGLPQTNVEYIQTDAAIDFGNAGGPLVNLDGEVIGVNTMKVTAGISFAIPSDRLREFLHRGEKKNSSSGISGSQRRYIGVMMLTLSPSILAELQLREPSFPDVQHGVLIHKVILGSPAHRAGLRPGDVILAIGEQMVQNAEDVYEAVRTQSQLAVQIRRGRETLTLYVTPEVTE	–	–	–	–	degradation of casein was not observed
mature HtrA2 (GVPS): SEQ ID NO: 10; substitution of alanine among the N-terminal four residues of mature HtrA2 with glycine (protein, Polypeptide consisting of the same amino acid sequence of SEQ ID NO4 wherein the 2nd amino acid residue is substituted by Gly; mature HtrA2(GVPS), substitution of alanine among the N-terminal four residues of mature HtrA2 with glycine) MGVPSPPPASPRSQYNFIADVVEKTAPAVVYIEILDRHPFLGREVPISNGSGFVVAADGLIVTNAHVVADRRRVRVRLLSGDTYEAVVTAVDPVADIATLRIQTKEPLPTLPLGRSADVRQGEFVVAMGSPFALQNTITSGIVSSAQRPARDLGLPQTNVEYIQTDAAIDFGNSGGPLVNLDGEVIGVNTMKVTAGISFAIPSDRLREFLHRGEKKNSSSGISGSQRRYIGVMMLTLSPSILAELQLREPSFPDVQHGVLIHKVILGSPAHRAGLRPGDVILAIGEQMVQNAEDVYEAVRTQSQLAVQIRRGRETLTLYVTPEVTE	active type having protease activity	the band of HNF-4α was reduced significantly	the band of ATF6 was reduced significantly	the band of CREBL1 was reduced significantly	–
